Measurements taken from patent US20060239990A1, “Protein Arginine N-Methyltransferase 2 (PRMT-2)” (priority 2003, published 2006).

T1: RB (Homo sapiens, UniProt P06400)
T1 construct: coding region of RB cDNA was subcloned into pGEX-6P (Amersham/Pharmacia) for generation of GST-RB; made in house
T1 sequence (P06400 1-928): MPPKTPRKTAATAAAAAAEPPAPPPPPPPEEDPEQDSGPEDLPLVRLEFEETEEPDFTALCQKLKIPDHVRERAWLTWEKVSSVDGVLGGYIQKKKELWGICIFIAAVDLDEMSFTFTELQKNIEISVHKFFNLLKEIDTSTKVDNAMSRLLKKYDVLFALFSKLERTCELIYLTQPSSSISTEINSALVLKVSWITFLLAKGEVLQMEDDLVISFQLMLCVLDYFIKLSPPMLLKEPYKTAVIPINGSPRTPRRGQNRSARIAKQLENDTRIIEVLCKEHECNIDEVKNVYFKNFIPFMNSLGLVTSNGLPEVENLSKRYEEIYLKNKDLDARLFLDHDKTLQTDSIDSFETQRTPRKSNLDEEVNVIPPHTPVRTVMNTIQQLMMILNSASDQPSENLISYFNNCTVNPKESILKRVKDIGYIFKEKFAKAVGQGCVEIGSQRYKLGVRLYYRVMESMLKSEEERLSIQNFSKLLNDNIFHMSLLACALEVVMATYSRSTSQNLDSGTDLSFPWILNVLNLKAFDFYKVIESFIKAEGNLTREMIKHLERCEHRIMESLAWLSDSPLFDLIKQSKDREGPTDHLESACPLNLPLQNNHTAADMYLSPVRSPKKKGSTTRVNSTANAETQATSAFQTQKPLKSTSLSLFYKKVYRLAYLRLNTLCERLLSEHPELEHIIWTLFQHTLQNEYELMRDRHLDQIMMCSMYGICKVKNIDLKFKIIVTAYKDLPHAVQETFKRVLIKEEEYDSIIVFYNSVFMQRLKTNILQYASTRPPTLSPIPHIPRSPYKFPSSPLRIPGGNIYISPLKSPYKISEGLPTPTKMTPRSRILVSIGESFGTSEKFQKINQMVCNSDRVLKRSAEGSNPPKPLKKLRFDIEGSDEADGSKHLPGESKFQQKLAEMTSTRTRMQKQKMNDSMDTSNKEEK


How the values were obtained:
RB = target: T1, RB; experiment: In vitro binding assay with GST-RB; settings: S35-labeled in vitro translated protein
Method: The crude cell lysate of the GST-fusion proteins was prepared and purified according to the manufacture's protocol (Amersham/Pharmacia). [^35S]-methionine-labeled protein was produced by in vitro transcription/translation using the TNT T7-coupled reticulocyte lysate system (Promega). [^35S]-methionine-labeled protein and GST-fusion protein bound to glutathione sepharose 4B beads were incubated in 500 μl of HNE buffer (50 mM Hepes, pH 7.8, 150 mM NaCl, 1 mM EDTA, 1 mM DTT, 1% NP40, and 1× protease inhibitor mix (Complete: Roche)) at 4° C. for 1 hour. Beads were washed four times with HNE buffer, and then analyzed on an SDS-PAGE gradient gel (4-15%). For the detection of endogenous PRMT-2 interaction with RB, MEFs were lysed with WCL buffer (50 mM Hepes, pH 7.8, 400 mM NaCl, 2 mM EDTA, 1 mM DTT, 0.2% NP40, 10% Glycerol, 20 mM α-glycerophosphate, 5 mM NaF, 0.1 mM NaVO4, and 1× protease inhibitor mix). Then, 1 mg of whole cell extracts were incubated with HNE buffer without DTT and 3 μg of antibodies as indicated. The immune complexes were isolated using protein G beads, and washed four times with HNE buffer. The precipitated protein was boiled with SDS-loading buffer and resolved on SDS-PAGE. For immunoprecipitation of HA-tagged protein, transfected cells were lysed with RIPA buffer (phosphate buffer saline containing 1% NP40, 0.5% sodium deoxycholate, 0.1% SDS, and 1× Complete), and 100 μg of whole cell lysates were immunoprecipitated with anti-HA antibodies and washed in RIPA buffer. Western blot analysis was performed as described in Tanner et al. (1998). Circ Res, 82, 396-403.
To test whether PRMT family members interact with RB, S^35-labeled in vitro translated PRMT1, PRMT2, PRMT3, and PRMT4 (CARM1) were incubated with GST-RB fusion proteins or control GST, and co-precipitated labeled proteins were resolved by SDS-PAGE. […] An equal amount of GST-RB and GST were loaded in each lane, verified by Coomassie staining (FIG. 8B).

HIV-1 LTR = experiment: HIV-1 reporter transcription, transient co-transfection; assay type: cell-based, human; settings: 293T cells, co-transfection
Method: (§1) Cell culture, transfection, and reporter gene assays. The E1A-transformed, human kidney cell line, 293, and NIH-3T3 cells were maintained in Dulbecco's Modified Eagle Medium (DMEM) supplemented with 10% fetal calf serum and penicillin-streptomycin at 37° C. in 5% carbon dioxide in tissue culture grade Petri dishes. PRMT-2−/− mouse embryo fibroblasts (MEFs) and wild type MEFs were prepared from day 13.5 embryos and maintained in DMEM supplemented with 10% fetal calf serum. MEFs at passage 4 were used in this experiment. Lipofectamine Plus™ reagent (Boehringer Mannheim) was used to transfect both 293 and NIH-3T3 cells according to directions from the manufacturer. […] TNF-α stimulation of cells was done using recombinant TNF-α (200 U/ml) for 12 hours. Transfected cells were harvested at 36 hours, and CAT activity was assayed on 10 to 100 μg of protein from whole cell extracts. CAT assays were performed essentially as described in Leung, K. & Nabel, G. J. Nature 333, 776-778 (1988). To analyze the κB-reporter activity in MEFs, cells were transfected with the reporter (2×kB-Luc) and PRL-TK vector (Promega) using FuGENE6 transfection reagent (Roche). Luciferase activity was analyzed by Dual-Luciferase Reporter Assay System (Promega).
To determine whether PRMT-1, 2 or 3 could affect NF-κB function, their potential to regulate effects on transcription of the human immunodeficiency virus type 1 (HIV-1) was examined. Transient co-transfections were performed using PRMT1, PRMT2 and PRMT3 expression plasmids with an HIV-1 reporter plasmid in the human renal epithelial cell line, 293T.
To determine its dependence on NF-κB, human immunodeficiency virus type 1 (HIV-1) reporter plasmids with wild-type (WT) or mutant (ΔκB) sites were co-transfected transiently with control or PRMT2 expression plasmids in the different cell lines. […] The KB effect was dose-dependent and was also observed with other inducers of NF-κB, including phorbol […] (PMA) (FIG. 2B, right panel).

NF-κB = NF-κB luciferase reporter assay in 293T cells; assay type: cell-based, human; settings: 1 μg expression construct, 100 ng 5 κB luciferase reporter
Method: as §1, with “Transfected cells were harvested at 36 hours, and CAT activity was assayed on 10 to 100 μg of protein from whole cell extracts.” left out
To map the domains responsible for inhibition of HIV transcription, truncation and point mutations were made in PRMT2 (FIG. 1D) and co-transfected with an NF-κB reporter in 293T cells. PRMT2-A represents an alternatively spliced form of PRMT2 found in the expressed sequence tag (EST) database. This isoform contains the first 218 amino acids of PRMT2 and differs from full length PRMT2 by the absence of the less conserved COOH-terminal domain. PRMT2-N was generated by introducing a stop codon after amino acid 95 before the putative Ado-Met domain of PRMT2. To analyze the role of the Ado-Met domain further, another mutant, PRMT2-4A, was prepared in which 141ILDV144 (SEQ ID NO:5) in this region were altered to four consecutive alanines to compare the effects of point mutations in this highly conserved region.
The mechanism and site of action of PRMT2 in the NF-κB signaling pathway was further defined by co-transfection of PRMT2 and its mutants with different regulators in this pathway with an NF-κB reporter in 293T cells (FIG. 2D).

Molecule | binding to RB (RB) | effect on transcription of the HIV-1 reporter plasmid (HIV-1 LTR) | NF-κB activity (NF-κB)
PRMT2(1-218): deletion mutant lacking the C-terminal domain, retains SH3 domain and a large part of the AdoMet binding domain (protein) MATSGDCPRSESQGEEPAECSEAGLLQEGVQPEEFVAIADYAATDETQLSFLRGEKILILRQTTADWWWGERAGCCGYIPANHVGKHVDEYDPEDTWQDEEYFGSYGTLKLHLEMLADQPRTTKYHSVILQNKESLTDKVILDVGCGTGIISLFCAHYARPRAVYAVEASEMAQHTGQLVLQNGFADIITVYQQKVEDVVLPEKVDVLVSEWMGTCLL | bound GST-RB at levels comparable to that of wild type PRMT2 | – | –
PRMT2(1-95): deletion mutant lacking the C-terminal and AdoMet binding domains, retains the SH3 domain (protein) MATSGDCPRSESQGEEPAECSEAGLLQEGVQPEEFVAIADYAATDETQLSFLRGEKILILRQTTADWWWGERAGCCGYIPANHVGKHVDEYDPED | did not bind GST-RB | – | –
PRMT3: human protein arginine methyltransferase 3, expression construct (protein) CSLASGATGGRGAVENEEDLPELSDSGDEAAWEDEDDADLPHGKQQTPCLFCNRLFTSAEETFSHCKSEHQFNIDSMVHKHGLEFYGYIKLINFIRLKNPTVEYMNSIYNPVPWEKEEYLKPVLEDDLLLQFDVEDLYEPVSVPFSYPNGLSENTSVVEKLKHMEARALSAEAALARAREDLQKMKQFAQDFVMHTDVRTCSSSTSVIADLQEDEDGVYFSSYGHYGIHEEMLKDKIRTESYRDFIYQNPHIFKDKVVLDVGCGTGILSMFAAKAGAKKVLGVDQSEILYQAMDIIRLNKLEDTITLIKGKIEEVHLPVEKVDVIISEWMGYFLLFESMLDSVLYAKNKYLAKGGSVYPDICTISLVAVSDVNKHADRIAFWDDVYGFKMSCMKKAVIPEAVVEVLDPKTLISEPCGIKHIDCHTTSISDLEFSSDFTLKITRTSMCTAIAGYFDIYFEKNCHNRVVFSTGPQSTKTHWKQTVFLLEKPFSVKAGEALKGKVTVHKNKKDPRSLTVTLTLNNSTQTYGLQ | do not bind RB | did not affect transcription | –
PRMT2-4A: amino acids 141-144 (ILDV) in the Ado-Met domain altered to four consecutive alanines, SEQ ID NO:6 (protein, A synthetic PRMT-2-4A mutant polypeptide) MATSGDCPRSESQGEEPAECSEAGLLQEGVQPEEFVAIADYAATDETQLSFLRGEKILILRQTTADWWWGERAGCCGYIPANHVGKHVDEYDPEDTWQDEEYFGSYGTLKLHLEMLADQPRTTKYHSVILQNKESLTDKVAAAAGCGTGIISLFCAHYARPRAVYAVEASEMAQHTGQLVLQNGFADIITVYQQKVEDVVLPEKVDVLVSEWMGTCLLFEFMIESILYARDAWLKEDGVIWPTMAALHLVPCSADKDYRSKVLFWDNAYEFNLSALKSLAVKEFFSKPKYNHILKPEDCLSEPCTILQLDMRTVQISDLETLRGELRFDIRKAGTLHGFTAWFSVHFQSLQEGQPPQVLSTGPFHPTTHWKQTLFMMDDPVPVHTGDVVTGSVVLQRNPVWRRHMSVALSWAVTSRQDPTSQKVGEKVFPIWR | – | – | inhibited NF-κB activity
